{"source": "paper PMC4994250", "about": "“A new mode of SAM domain mediated oligomerization observed in the CASKIN2 neuronal scaffolding protein” (Cell Communication and Signaling : CCS, 2016)", "key": {"[1]": {"target": "the molecule itself", "test": "crystal structure; selenomethionine labeled SAM1-SAM2, 0.6 mM in T300 buffer, hanging drop at 4 °C, 0.1 M Tris pH 7.5, 2.4 M sodium formate, 5 mM DTT; SAD, 2.75 Å; one tandem in the asymmetric unit"}, "[2]": {"target": "the molecule itself", "test": "AUC; sedimentation velocity, 300 mM NaCl, 20 mM sodium phosphate pH 7.8, 20 °C, 50,000 rpm; 10 and 34 μM loading, Kd fitted from the 34 μM experiment; monomer-dimer equilibrium (dimer to monomers)"}, "[3]": {"target": "the molecule itself", "test": "AUC; sedimentation velocity, 150 mM NaCl, 20 mM sodium phosphate pH 7.8, 20 °C, 50,000 rpm; 10 and 34 μM loading, Kd fitted from the 34 μM experiment; monomer-dimer equilibrium (dimer to monomers)"}}, "data": [{"protein": "human CASKIN2 SAM1-SAM2 tandem (483-634), wild type (domain or fragment, selenomethionine in the protein used for crystals; uniform 15N label in the NMR samples, CASKIN2, human, tandem SAM domains SAM1-SAM2, residues 483-634 of Uniprot Q8WXE0; Cloned into BamHI/XhoI of pET28; the vector probably adds an N-terminal His tag with linker residues (surmise); also called CASKIN2 SAM tandem; wild type SAM tandem; source: E. coli BL21:DE3, purified (Nickel-NTA, gel filtration)) not shown", "values": [{"measurement": "stoichiometry N", "setting": "[1]", "value": 2}, {"measurement": "Kd", "setting": "[2]", "value": 27.6, "unit": "µM"}, {"measurement": "Kd", "setting": "[3]", "value": 52.9, "unit": "µM"}]}]}
